Results on 17 variants are retold here after IntAct's records for PubMed 17581628.

Sequences and labels used below:
B1: DCC-interacting protein 13-alpha (Homo sapiens), Q9UKG1 (parent)
chain: MPGIDKLPIEETLEDSPQTRSLLGVFEEDATAISNYMNQLYQAMHRIYDAQNELSAATHLTSKLLKEYEKQRFPLGGDDEVMSSTLQQFSKVIDELSSCHAVLSTQLADAMMFPITQFKERDLKEILTLKEVFQIASNDHDAAINRYSRLSKKRENDKVKYEVTEDVYTSRKKQHQTMMHYFCALNTLQYKKKIALLEPLLGYMQAQISFFKMGSENLNEQLEEFLANIGTSVQNVRREMDSDIETMQQTIEDLEVASDPLYVPDPDPTKFPVNRNLTRKAGYLNARNKTGLVSSTWDRQFYFTQGGNLMSQARGDVAGGLAMDIDNCSVMAVDCEDRRYCFQITSFDGKKSSILQAESKKDHEEWICTINNISKQIYLSENPEETAARVNQSALEAVTPSPSFQQRHESLRPAAGQSRPPTARTSSSGSLGSESTNLAALSLDSLVAPDTPIQFDIISPVCEDQPGQAKAFGQGGRRTNPFGESGGSTKSETEDSILHQLFIVRFLGSMEVKSDDHPDVVYETMRQILAARAIHNIFRMTESHLLVTCDCLKLIDPQTQVTRLTFPLPCVVLYATHQENKRLFGFVLRTSSGRSESNLSSVCYIFESNNEGEKICDSVGLAKQIALHAELDRRASEKQKEIERVKEKQQKELNKQKQIEKDLEEQSRLIAASSRPNQASSEGQFVVLSSSQSEESDLGEGGKKRESEA
B2: Ras-related protein Rab-5A (Homo sapiens), P20339 (parent)
chain: MASRGATRPNGPNTGNKICQFKLVLLGESAVGKSSLVLRFVKGQFHEFQESTIGAAFLTQTVCLDDTTVKFEIWDTAGQERYHSLAPMYYRGAQAAIVVYDITNEESFARAKNWVKELQRQASPNIVIALSGNKADLANKRAVDFQEAQSYADDNSLLFMETSAKTSMNVNEIFMAIAKKLPKNEPQNPGANSARGRGVDLTEPTQPTRNQCCSN
partner: B1 chain

The variants in one assay derive from B1. As to conditions: with rab21_human RAB21, Q9UL25.
rab21_human RAB21, Q9UL25, sequence (Q9UL25 whole entry): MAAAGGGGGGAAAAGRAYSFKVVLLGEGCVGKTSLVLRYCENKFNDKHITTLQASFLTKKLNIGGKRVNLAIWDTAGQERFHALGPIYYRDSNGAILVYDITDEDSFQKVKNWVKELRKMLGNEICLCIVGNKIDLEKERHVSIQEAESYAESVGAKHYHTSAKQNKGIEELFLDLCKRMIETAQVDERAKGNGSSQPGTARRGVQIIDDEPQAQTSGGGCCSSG
On to D348K, for which the “effect of a mutation on the interaction” value is “disrupting interaction”.

Another assay covers variants of B1. As to conditions: with rab5a_human RAB5A.
As to A318D, the “effect of a mutation on the interaction” value was “disrupting interaction”.

The variants in the next assay derive from B1. As to conditions: with rab21_human RAB21, Q9UL25. This is another data set of the same source.
Consider L321D, for which the “effect of a mutation on the interaction” value was “decreasing interaction”.

Another assay covers variants of B1. As to conditions: with rab5a_human RAB5A. This is another data set of the same source.
In the case of L321D, the “effect of a mutation on the interaction” value is reported as “disrupting interaction”.

A further assay covers variants of B1. As to conditions: with rab5a_human RAB5A. The source holds these as a separate data set.
M310K: the “effect of a mutation on the interaction” value is “disrupting interaction”.

The variants in another assay derive from B1. As to conditions: with rab21_human RAB21, Q9UL25. The source holds these as a separate data set.
Take M310K: the “effect of a mutation on the interaction” value is on record as “disrupting interaction”.

In the next assay the parent is B1. As to conditions: with rab21_human RAB21, Q9UL25. The source holds these as a separate data set.
On to D324A, for which the “effect of a mutation on the interaction” value is given as “disrupting interaction”.

The variants in another assay derive from B1. As to conditions: with rab5a_human RAB5A. The source holds these as a separate data set.
As to D324A, the “effect of a mutation on the interaction” value is given as “disrupting interaction”.

In another assay the parent is B1. As to conditions: with rab21_human RAB21, Q9UL25. The source holds these as a separate data set.
Take E28K: the “effect of a mutation on the interaction” value is “decreasing interaction”.

The variants in a further assay derive from B1. As to conditions: with rab5a_human RAB5A. The source holds these as a separate data set.
On to V25D, for which the “effect of a mutation on the interaction” value is “decreasing interaction”.

In another assay the parent is B1. As to conditions: with rab21_human RAB21, Q9UL25. The source holds these as a separate data set.
Consider V25D, for which the “effect of a mutation on the interaction” value is recorded as “decreasing interaction”.

In the next assay the parent is B1. As to conditions: with rab5a_human RAB5A. This is another data set of the same source.
Regarding N308D, the “effect of a mutation on the interaction” value is “disrupting interaction”.

The variants in the next assay derive from B1. As to conditions: with rab21_human RAB21, Q9UL25. The source holds these as a separate data set.
Turning to N308D, the “effect of a mutation on the interaction” value is on record as “disrupting interaction”.

The variants in a further assay derive from B1. As to conditions: with rab21_human RAB21, Q9UL25. The source holds these as a separate data set.
G319R: the “effect of a mutation on the interaction” value is on record as “disrupting interaction”.

The variants in another assay derive from B1. As to conditions: with rab5a_human RAB5A. The source holds these as a separate data set.
As for G319R, the “effect of a mutation on the interaction” value is given as “disrupting interaction”.

The variants in another assay derive from B1. As to conditions: with rab21_human RAB21, Q9UL25. The source holds these as a separate data set.
For D316R, the “effect of a mutation on the interaction” value is “disrupting interaction”.

The variants in the next assay derive from B2. As to conditions: with dp13a_human APPL1, Q9UKG1.
MASRGATRPNGPNTGNKICQFKLVLLGESAVGKSSLVLRFVKGQFHEFQESTIGAAFLTQTVCLDDTTVKFEIWDTAGQERYHSLAPMRYRGAQAAIVVYDITNEESFARAKNWVKELQRQASPNIVIALSGNKADLANKRAVDFQEAQSYADDNSLLFMETSAKTSMNVNEIFMAIAKKLPKNEPQNPGANSARGRGVDLTEPTQPTRNQCCSN [Y89R]: the “effect of a mutation on the interaction” value was “decreasing interaction”.

Variants of B2 are the subject of the next assay. As to conditions: with dp13a_human APPL1, Q9UKG1. The source holds these as a separate data set.
For the variant MASRGATRPNGPNTGNKICQFKLVLLGESAVGKSSLVLRFVEGQFHEFQESTIGAAFLTQTVCLDDTTVKFEIWDTAGQERYHSLAPMYYRGAQAAIVVYDITNEESFARAKNWVKELQRQASPNIVIALSGNKADLANKRAVDFQEAQSYADDNSLLFMETSAKTSMNVNEIFMAIAKKLPKNEPQNPGANSARGRGVDLTEPTQPTRNQCCSN [K42E], the “effect of a mutation on the interaction” value was “decreasing interaction”.

The variants in the next assay derive from B2. As to conditions: with dp13a_human APPL1, Q9UKG1. This is another data set of the same source.
Consider MASRGATRPNGPNTGNKICQFKLVLLGESAVGKSSLVLRFVKGQFHEFQESTIGAAFLTQTVCLDDTTVKFEIRDTAGQERYHSLAPMYYRGAQAAIVVYDITNEESFARAKNWVKELQRQASPNIVIALSGNKADLANKRAVDFQEAQSYADDNSLLFMETSAKTSMNVNEIFMAIAKKLPKNEPQNPGANSARGRGVDLTEPTQPTRNQCCSN [W74R], for which the “effect of a mutation on the interaction” value is “disrupting interaction”.

In a further assay the parent is B2. As to conditions: with dp13a_human APPL1, Q9UKG1. This is another data set of the same source.
On to MASRGATRPNGPNTGNKICQFKLVLLGESAVGKSSLVLRFVKGQFHENQESTIGAAFLTQTVCLDDTTVKFEIWDTAGQERYHSLAPMYYRGAQAAIVVYDITNEESFARAKNWVKELQRQASPNIVIALSGNKADLANKRAVDFQEAQSYADDNSLLFMETSAKTSMNVNEIFMAIAKKLPKNEPQNPGANSARGRGVDLTEPTQPTRNQCCSN [F48N], for which the “effect of a mutation on the interaction” value is “decreasing interaction”.

The next assay covers variants of B2. As to conditions: with dp13a_human APPL1, Q9UKG1. This is another data set of the same source.
Turning to MASRGATRPNGPNTGNKICQFKLVLLGESAVGKSSLVLRFVKGQFHEFQESTIGAAFLTQTVCLDDTTVKFEIWDTAGQERYHSLAPSYYRGAQAAIVVYDITNEESFARAKNWVKELQRQASPNIVIALSGNKADLANKRAVDFQEAQSYADDNSLLFMETSAKTSMNVNEIFMAIAKKLPKNEPQNPGANSARGRGVDLTEPTQPTRNQCCSN [M88S], the “effect of a mutation on the interaction” value is “decreasing interaction”.

In the next assay the parent is B2. As to conditions: with dp13a_human APPL1, Q9UKG1. The source holds these as a separate data set.
As for MASRGATRPNGPNTGNKICQFKLVLLGESAVGKSSLVLRFVKGQFHEFQESTIGAAFLTQTVCLDDTTVKFEIWDTAGQERYHSRAPMYYRGAQAAIVVYDITNEESFARAKNWVKELQRQASPNIVIALSGNKADLANKRAVDFQEAQSYADDNSLLFMETSAKTSMNVNEIFMAIAKKLPKNEPQNPGANSARGRGVDLTEPTQPTRNQCCSN [L85R], the “effect of a mutation on the interaction” value is recorded as “disrupting interaction”.

The variants in another assay derive from B2. As to conditions: with dp13a_human APPL1, Q9UKG1. This is another data set of the same source.
With MASRGATRPNGPNTGNKICQFKLVLLGESAVGKSSLVLRFVKGQFDEFQESTIGAAFLTQTVCLDDTTVKFEIWDTAGQERYHSLAPMYYRGAQAAIVVYDITNEESFARAKNWVKELQRQASPNIVIALSGNKADLANKRAVDFQEAQSYADDNSLLFMETSAKTSMNVNEIFMAIAKKLPKNEPQNPGANSARGRGVDLTEPTQPTRNQCCSN [H46D], the “effect of a mutation on the interaction” value is reported as “disrupting interaction”.
